Reference: patent US7888116B2, “Uses of notch receptors, notch ligands, and notch modulators in methods related to metabolic diseases” (The United States of America as represented by the …, priority 2005, dated 2011)

System: Notch-1 (NICD)
Experiment: NICD nuclear translocation in RIN cells (indirect immunofluorescence, immunoblot of nuclear extracts)
Type: cell-based, rat
Settings: RIN cells treated with secretagogues
Procedure: Islet isolation, cell culture and treatments. Adult rat (Sprague-Dawley) and mouse (C57/BL6) islets were isolated by collagenase P digestion and cultured overnight in M199 medium (5 mM glucose). RIN 1046-38 β-cells were cultured as outlined previously (Wang, et al., Endocrinology, 142:1820-1827 (2001)). Isolated human islets came from David Harlan, Transplant Section, NIDDK. Ex-4, GLP-1, CCK (all used at concentrations previously shown to cause maximum insulin release), Ex and the γ-secretase inhibitor, L-685,458, were obtained from Bachem. H89 was from Calbiochem, insulin was from Sigma. The Jagged peptides, R-JAG […] (SEQ ID NO:1), JAG-1 […] (SEQ ID NO:2), and scrambled control peptide without agonist activity, sc-Jagged […] (Nickoloff, et al., Cell Death Differ, 9842-855 (2002)) (SEQ ID NO:3), were synthesised by New England Peptide Inc. […]
RIN cells were permeabilized in Triton-X (0.1%) on ice and blocked for 1 h at room temperature in 3% BSA and 0.1% Tween in PBS. They were incubated overnight at 4° C. with the primary antibody, washed in PBS and incubated with fluorescent labelled secondary antibody for 1 h, washed and mounted with fluorescence mounting medium (Vector Laboratories). […] AlexaFluor antibodies (Molecular Probes; Eugene, Oreg.) were excited with the 488-nm line of a krypton-argon laser and recorded at the presence of emission filter BP515-565 nm. […]

B1: Cholecystokinin (peptide, UniProt P06307 21-115, looked up)
Cholecystokinin: QPVPPADPAGSGLQRAEEAPRRQLRVSQRTDGESRAHLGALLARYIQQARKAPSGRMSIVKNLQNLDPSHRISDRDYMGWMDFGRRSAEEYEYPS
modifications: Cholecystokinin
notes: increases insulin secretion in a non-cAMP dependent manner
B1 was tested, and the “nuclear NICD / NICD translocation” value was “did not increase NICD translocation above that seen with glucose alone”.
